According to publication PMC9351520:

Legend:
[1] = target: fluorescently Ct-labeled six-residue peptide bearing Nt-Asp; assay: fluorescence polarisation
[2] = target: fluorescently Ct-labeled six-residue peptide bearing Nt-Glu; assay: fluorescence polarisation

Kd [1]: > 100 µM | Kd [2]: > 100 µM
Substance: klAte1, the Ate1 arginyl-tRNA-protein transferase (R-transferase) of Kluyveromyces lactis (enzyme)
